Experimental data published in paper PMC2808462 (Biochemistry, 2010).

Biological target: the molecule itself
Experiment: AUC

B1: human progesterone receptor B-isoform (PR-B), residues 1-933 (natural protein, UniProt P06401 1-933, looked up)
chain: MTELKAKGPRAPHVAGGPPSPEVGSPLLCRPAAGPFPGSQTSDTLPEVSAIPISLDGLLFPRPCQGQDPSDEKTQDQQSLSDVEGAYSRAEATRGAGGSSSSPPEKDSGLLDSVLDTLLAPSGPGQSQPSPPACEVTSSWCLFGPELPEDPPAAPATQRVLSPLMSRSGCKVGDSSGTAAAHKVLPRGLSPARQLLLPASESPHWSGAPVKPSPQAAAVEVEEEDGSESEESAGPLLKGKPRALGGAAAGGGAAAVPPGAAAGGVALVPKEDSRFSAPRVALVEQDAPMAPGRSPLATTVMDFIHVPILPLNHALLAARTRQLLEDESYDGGAGAASAFAPPRSSPCASSTPVAVGDFPDCAYPPDAEPKDDAYPLYSDFQPPALKIKEEEEGAEASARSPRSYLVAGANPAAFPDFPLGPPPPLPPRATPSRPGEAAVTAAPASASVSSASSSGSTLECILYKAEGAPPQQGPFAPPPCKAPGASGCLLPRDGLPSTSASAAAAGAAPALYPALGLNGLPQLGYQAAVLKEGLPQVYPPYLNYLRPDSEASQSPQYSFESLPQKICLICGDEASGCHYGVLTCGSCKVFFKRAMEGQHNYLCAGRNDCIVDKIRRKNCPACRLRKCCQAGMVLGGRKFKKFNKVRVVRALDAVALPQPVGVPNESQALSQRFTFSPGQDIQLIPPLINLLMSIEPDVIYAGHDNTKPDTSSSLLTSLNQLGERQLLSVVKWSKSLPGFRNLHIDDQITLIQYSWMSLMVFGLGWRSYKHVSGQMLYFAPDLILNEQRMKESSFYSLCLTMWQIPQEFVKLQVSQEEFLCMKVLLLLNTIPLEGLRSQTQFEEMRSSYIRELIKAIGLRQKGVVSSSQRFYQLTKLLDNLHDLVKQLHLYCLNTFIQSRALSVEFPEMMSEVIAAQLPKILAGMVKPLLFHKK
stoichiometry N: 2
